Measured values: PMC3212559, “Large-Scale Protein-Protein Interaction Analysis in Arabidopsis Mesophyll Protoplasts by Split Firefly Luciferase Complementation” (PLoS ONE, 2011)

Tests used:
Experiment in all cases: split reporter (BiFC, NanoBiT); SFLC in living Arabidopsis mesophyll protoplasts: Aux/IAA-FLucN or MYB30-FLucN co-expressed with ARFCTD-FLucC or Aux/IAA-FLucC for 6 hr; 10 µg of each construct, 2×10^4 cells, 96-well plate, D-luciferin; relative activity standardised against ARF5CTD-FLucC + IAA28-FLucN
Conditions in all cases: partners not purified
IAA19-FLucC = target: T1, IAA19-FLucC (Arabidopsis, UniProt O24409 1-197)
T1 construct: Arabidopsis Aux/IAA protein IAA19; also called Aux/IAA-FLucC; source: Arabidopsis mesophyll protoplasts, transfected, in living cells; not shown: FLucC (firefly luciferase aa 394-550)
T1 sequence (looked up): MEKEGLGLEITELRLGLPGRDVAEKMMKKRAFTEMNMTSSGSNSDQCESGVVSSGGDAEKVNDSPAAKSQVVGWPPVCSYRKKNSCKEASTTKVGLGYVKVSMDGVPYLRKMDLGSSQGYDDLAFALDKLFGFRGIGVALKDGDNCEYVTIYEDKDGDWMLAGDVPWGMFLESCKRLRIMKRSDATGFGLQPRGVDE

[1] = target: T2, ARF10 C-terminal domain (CTD)-FLucC (Arabidopsis, UniProt Q9SKN5 580-693)
T2 construct: Arabidopsis auxin response factor 10, C-terminal dimerization domain (CTD); In the ARF-ARF tests the same CTD stood both as ARFCTD-FLucC and as ARFCTD-FLucN; one molecule for both; also called ARF10CTD-FLucC; ARFCTD-FLucC; source: Arabidopsis mesophyll protoplasts, transfected, in living cells (SFLC) and in lysate (co-IP); not shown: FLucC (firefly luciferase aa 394-550)
T2 sequence (looked up): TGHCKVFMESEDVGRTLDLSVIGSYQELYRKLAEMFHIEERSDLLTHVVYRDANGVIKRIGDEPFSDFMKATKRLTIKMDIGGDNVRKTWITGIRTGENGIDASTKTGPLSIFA

IAA12-FLucC = target: T3, IAA12-FLucC (Arabidopsis, UniProt Q38830 1-239)
T3 construct: Arabidopsis Aux/IAA protein IAA12; also called Aux/IAA-FLucC; source: Arabidopsis mesophyll protoplasts, transfected, in living cells; not shown: FLucC (firefly luciferase aa 394-550)
T3 sequence (looked up): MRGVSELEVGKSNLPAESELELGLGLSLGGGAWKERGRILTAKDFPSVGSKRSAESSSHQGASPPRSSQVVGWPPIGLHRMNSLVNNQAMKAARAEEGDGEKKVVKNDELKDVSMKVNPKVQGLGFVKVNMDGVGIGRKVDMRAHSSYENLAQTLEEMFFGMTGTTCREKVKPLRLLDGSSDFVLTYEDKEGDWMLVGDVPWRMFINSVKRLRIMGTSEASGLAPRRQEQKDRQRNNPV

IAA9-FLucC = target: T4, IAA9-FLucC (Arabidopsis, UniProt Q38827 1-338)
T4 construct: Arabidopsis Aux/IAA protein IAA9; also called Aux/IAA-FLucC; source: Arabidopsis mesophyll protoplasts, transfected, in living cells; not shown: FLucC (firefly luciferase aa 394-550)
T4 sequence (looked up): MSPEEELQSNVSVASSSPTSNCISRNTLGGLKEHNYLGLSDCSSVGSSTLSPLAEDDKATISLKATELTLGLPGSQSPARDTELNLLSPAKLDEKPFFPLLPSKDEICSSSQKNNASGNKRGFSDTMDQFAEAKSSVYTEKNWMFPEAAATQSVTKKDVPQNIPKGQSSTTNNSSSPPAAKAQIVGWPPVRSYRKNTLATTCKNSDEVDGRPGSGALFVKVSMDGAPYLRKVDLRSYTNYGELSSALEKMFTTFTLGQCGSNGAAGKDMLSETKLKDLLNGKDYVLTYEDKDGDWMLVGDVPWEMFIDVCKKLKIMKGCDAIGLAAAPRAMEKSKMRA

IAA6-FLucC = target: T5, IAA6-FLucC (Arabidopsis, UniProt Q38824 1-189)
T5 construct: Arabidopsis Aux/IAA protein IAA6; also called Aux/IAA-FLucC; source: Arabidopsis mesophyll protoplasts, transfected, in living cells; not shown: FLucC (firefly luciferase aa 394-550)
T5 sequence (looked up): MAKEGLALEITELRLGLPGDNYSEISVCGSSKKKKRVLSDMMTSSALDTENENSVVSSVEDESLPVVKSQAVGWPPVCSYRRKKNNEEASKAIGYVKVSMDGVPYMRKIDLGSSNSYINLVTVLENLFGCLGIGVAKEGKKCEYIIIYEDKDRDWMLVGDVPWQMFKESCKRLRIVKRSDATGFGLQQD

Measured: relative luciferase activity (standardised against ARF5CTD-FLucC + IAA28-FLucN)

B1: MYB30-FLucN (natural protein, UniProt Q9SCU7 1-323, looked up)
chain: MVRPPCCDKGGVKKGPWTPEEDIILVTYIQEHGPGNWRAVPTNTGLLRCSKSCRLRWTNYLRPGIKRGNFTEHEEKMIVHLQALLGNRWAAIASYLPQRTDNDIKNYWNTHLKKKLNKVNQDSHQELDRSSLSSSPSSSSANSNSNISRGQWERRLQTDIHLAKKALSEALSPAVAPIITSTVTTTSSSAESRRSTSSASGFLRTQETSTTYASSTENIAKLLKGWVKNSPKTQNSADQIASTEVKEVIKSDDGKECAGAFQSFSEFDHSYQQAGVSPDHETKPDITGCCSNQSQWSLFEKWLFEDSGGQIGDILLDENTNFF
notes: transcription factor MYB30, the unrelated protein used as negative control; source: Arabidopsis mesophyll protoplasts, transfected, in living cells; not shown: FLucN (firefly luciferase aa 1-398)
< 0.1: all assays above
